B1: mouse Cachd1 extracellular domain (CACHD1ECD) (domain or fragment)
chain: DADFSILDEAQVLASQMRRLAAEELGVVTMQRIFNSLVYTEKISNGESEVQQLAKKIREKFNRYLDVVNRNKQVVEASYTAHLTSPLTAIQDCCTIPPSMMEFDGNFNTNVSRTVSCDRLSTTVNSRAFNPGRDLNSVLADNLKSNPGIKWQYFSSEEGIFTVFPAHKFRCKGSYEHRSRPIYVSTVRPQSKHIVVILDHGASVTDTQLQIAKDAAQVILSAIDEHDKISVLTVADAVRTCSLDQCYKTYLSPATSETKRKMSTFVSSVKPSDSPTQHAVGFHRAFQLIRSTSNSTRFQANTDMVIIYLSAGITSKDSSEEDKKATLRVINEENGFLNNSVMILTYALMNDGVTGLKELAFLRDLAEQNSGKYGIPDRTALPVIKGSMMVLNQLSNLETTVGRFYTNLPNRMIDEAVFSLPFSDEMGDGLIMTVSKPCYFGNLLLGIVGVDVNLAYILEDVTYYQDSLASYTFLIDDKGYTLMHPSLTRPYLLSEPPLHTDIIHYENIPKFELVRQNILSLPLGSQIITVPVNSSLSWHINKLRETGKEAYNVSYAWKMVQDTSFILCIVVIQPEIPVKQLKNLNTVPSSKLLYHRLDLLGQPSACLHFKQLATLESPTVMLSAGSFSSPYEHLSQPETKRMVEHYTAYLSDNTRLIANPGLKFSVRNEVMATSHVTDEWMTQMEMSSLNTYIVRRYIATPNGVLRIYPGSLMDKAFDPTRRQWYLHAVANPGLISLTGPYLDVGGAGYVVTISHTIHSSSTQLSSGHTVAVMGIDFTLRYFYKVLMDLLPVCNQDGGNKIRCFIMEDRGYLVAHPTLVDPKGHAPLEQQHITHKEPLVANDILNHPNFVKKNLCNSFSDRTVQRSYKFNTSLVGDLTNLVHGSHCSKYRLTRIPGTNAFVGIVNETCDSLAFCACSMVDRLCLNCHRMEQNECECPCECPLEVNECTGNLTNAENRNPSCEVHQEPVTYTAIDPGLQDALQQCVNSRCNQRMESGDCFGVLDCEWCVVDSDGKTHLDKSYCAPQKECFGGIVGAKSPYVDDMGAIGDEVITLNMIKS
notes: mouse Cachd1 extracellular domain, residues D50-S1107, in pNeoSec; also called mouse CACHD1ECD; source: deglycosylated with EndoF1 before crystallisation

Tests used:
Conditions in all cases: both partners purified
[1] = target: human FZD7 cysteine rich domain (FZD7CRD), biotinylated, for SPR (human, UniProt O75084 33-170, biotin); test: SPR; biotinylated FZD CRDs or LRP6 fragments immobilised (about 500-1,000 RU) on an SA sensor chip, CACHD1ECD as analyte at 100 μL/min; Biacore S200, 25 °C, 10 mM HEPES pH 7.5, 150 mM NaCl, 0.005% Tween 20; equilibrium response fitted to a one-site saturation binding model
[2] = target: B1; test: as above
[3] = target: B1; test: crystal structure; ternary complex: Cachd1ECD mixed with equal molar FZD5CRD and LRP6 P3E3P4E4; 0.1 M calcium acetate, 0.1 M sodium acetate pH 4.5, 10% (w/v) PEG 4000; 4.7 Å

Binder | Kd [2] [nM] | further results
B1 |  | Kd [1]: 14200 nM
mouse FZD5 cysteine rich domain (FZD5CRD), biotinylated, for SPR (domain or fragment, UniProt Q9EQD0 27-157, looked up, biotin, mouse Fzd5 cysteine rich domain, residues A27-T157, synthesised (Genscript); also called mouse FZD5CRD; source: HEK293T, co-transfected with a BirA-ER plasmid) ASKAPVCQEITVPMCRGIGYNLTHMPNQFNHDTQDEAGLEVHQFWPLVEIHCSPDLRFFLCSMYTPICLPDYHKPLPPCRSVCERAKAGCSPLMRQYGFAWPERMSCDRLPVLGGDAEVLCMDYNRSEATT | 480 | 
human FZD8 cysteine rich domain (FZD8CRD), biotinylated, for SPR (domain or fragment, UniProt Q9H461 28-158, looked up, biotin, human FZD8 CRD, residues A28-T158, synthesised (Genscript); also called human FZD8CRD; source: HEK293T, co-transfected with a BirA-ER plasmid) ASAKELACQEITVPLCKGIGYNYTYMPNQFNHDTQDEAGLEVHQFWPLVEIQCSPDLKFFLCSMYTPICLEDYKKPLPPCRSVCERAKAGCAPLMRQYGFAWPDRMRCDRLPEQGNPDTLCMDYNRTDLTT | 950 | 
human LRP6 P3E3P4E4 (membrane proximal fragment), biotinylated, for SPR (domain or fragment, UniProt O75581 629-1244, looked up, biotin, human LRP6 P3E3P4E4 domains, residues V629-G1244; also called 3-4; source: HEK293T, co-transfected with a BirA-ER plasmid) VPEAFLLFSRRADIRRISLETNNNNVAIPLTGVKEASALDFDVTDNRIYWTDISLKTISRAFMNGSALEHVVEFGLDYPEGMAVDWLGKNLYWADTGTNRIEVSKLDGQHRQVLVWKDLDSPRALALDPAEGFMYWTEWGGKPKIDRAAMDGSERTTLVPNVGRANGLTIDYAKRRLYWTDLDTNLIESSNMLGLNREVIADDLPHPFGLTQYQDYIYWTDWSRRSIERANKTSGQNRTIIQGHLDYVMDILVFHSSRQSGWNECASSNGHCSHLCLAVPVGGFVCGCPAHYSLNADNRTCSAPTTFLLFSQKSAINRMVIDEQQSPDIILPIHSLRNVRAIDYDPLDKQLYWIDSRQNMIRKAQEDGSQGFTVVVSSVPSQNLEIQPYDLSIDIYSRYIYWTCEATNVINVTRLDGRSVGVVLKGEQDRPRAVVVNPEKGYMYFTNLQERSPKIERAALDGTEREVLFFSGLSKPIALALDSRLGKLFWADSDLRRIESSDLSGANRIVLEDSNILQPVGLTVFENWLYWIDKQQQMIEKIDMTGREGRTKVQARIAQLSDIHAVKELNLQEYRQHPCAQDNGGCSHICLVKGDGTTRCSCPMHLVLLQDELSCG | 170 | 
human LRP6 P1E1P2E2 (membrane distal fragment), biotinylated, for SPR (domain or fragment, UniProt O75581 20-630, looked up, biotin, human LRP6 P1E1P2E2 domains, residues A20-P630; source: HEK293T, co-transfected with a BirA-ER plasmid) APLLLYANRRDLRLVDATNGKENATIVVGGLEDAAAVDFVFSHGLIYWSDVSEEAIKRTEFNKTESVQNVVVSGLLSPDGLACDWLGEKLYWTDSETNRIEVSNLDGSLRKVLFWQELDQPRAIALDPSSGFMYWTDWGEVPKIERAGMDGSSRFIIINSEIYWPNGLTLDYEEQKLYWADAKLNFIHKSNLDGTNRQAVVKGSLPHPFALTLFEDILYWTDWSTHSILACNKYTGEGLREIHSDIFSPMDIHAFSQQRQPNATNPCGIDNGGCSHLCLMSPVKPFYQCACPTGVKLLENGKTCKDGATELLLLARRTDLRRISLDTPDFTDIVLQLEDIRHAIAIDYDPVEGYIYWTDDEVRAIRRSFIDGSGSQFVVTAQIAHPDGIAVDWVARNLYWTDTGTDRIEVTRLNGTMRKILISEDLEEPRAIVLDPMVGYMYWTDWGEIPKIERAALDGSDRVVLVNTSLGWPNGLALDYDEGKIYWGDAKTDKIEVMNTDGTGRRVLVEDKIPHIFGFTLLGDYVYWTDWQRRSIERVHKRSAEREVIIDQLPDLMGLKATNVHRVIGSNPCAEENGGCSHLCLYRPQGLRCACPIGFELISDMKTCIVP | 5860 | 
human LRP6 P3E3P4E4, for crystallography (domain or fragment, UniProt O75581 629-1244, looked up, human LRP6 P3E3P4E4 domains, residues V629-G1244) VPEAFLLFSRRADIRRISLETNNNNVAIPLTGVKEASALDFDVTDNRIYWTDISLKTISRAFMNGSALEHVVEFGLDYPEGMAVDWLGKNLYWADTGTNRIEVSKLDGQHRQVLVWKDLDSPRALALDPAEGFMYWTEWGGKPKIDRAAMDGSERTTLVPNVGRANGLTIDYAKRRLYWTDLDTNLIESSNMLGLNREVIADDLPHPFGLTQYQDYIYWTDWSRRSIERANKTSGQNRTIIQGHLDYVMDILVFHSSRQSGWNECASSNGHCSHLCLAVPVGGFVCGCPAHYSLNADNRTCSAPTTFLLFSQKSAINRMVIDEQQSPDIILPIHSLRNVRAIDYDPLDKQLYWIDSRQNMIRKAQEDGSQGFTVVVSSVPSQNLEIQPYDLSIDIYSRYIYWTCEATNVINVTRLDGRSVGVVLKGEQDRPRAVVVNPEKGYMYFTNLQERSPKIERAALDGTEREVLFFSGLSKPIALALDSRLGKLFWADSDLRRIESSDLSGANRIVLEDSNILQPVGLTVFENWLYWIDKQQQMIEKIDMTGREGRTKVQARIAQLSDIHAVKELNLQEYRQHPCAQDNGGCSHICLVKGDGTTRCSCPMHLVLLQDELSCG |  | binding result [3]: binds
